Non-standard residues stand in square brackets, D forms with d. Met(O) = CS(=O)CC[C@H](N)C(=O)O
Experiments:
[1] = target: SNARE complex (VAMP, syntaxin, SNAP-25 bound to GST) (UniProt P60880); assay: ELISA of SNARE complex formation (SNAP-25-GST, syntaxin, immobilized VAMP); compound at 2.5 mM
[2] = target: SNARE complex (VAMP, syntaxin, SNAP-25 bound to GST) (UniProt P60880); assay: ELISA of SNARE complex formation (SNAP-25-GST, syntaxin, immobilized VAMP); compound at 0.5 mM
[3] = target: SNARE complex (VAMP, syntaxin, SNAP-25) (UniProt P60880); assay: SDS-PAGE of SNARE complex (VAMP, syntaxin, SNAP-25), image analysis; compound at 1 mM
[4] = target: SNARE complex (VAMP, syntaxin, SNAP-25) (UniProt P60880); assay: SDS-PAGE of SNARE complex (VAMP, syntaxin, SNAP-25), image analysis; compound at 5 mM

Chain of SNARE complex (VAMP, syntaxin, SNAP-25 bound to GST) (P60880 whole entry, one chain of several): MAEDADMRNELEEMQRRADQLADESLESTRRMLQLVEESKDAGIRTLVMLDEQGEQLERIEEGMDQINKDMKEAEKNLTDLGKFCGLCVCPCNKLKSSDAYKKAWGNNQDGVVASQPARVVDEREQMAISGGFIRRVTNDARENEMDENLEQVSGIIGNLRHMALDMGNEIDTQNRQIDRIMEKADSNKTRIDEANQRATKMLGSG
Chain of SNARE complex (VAMP, syntaxin, SNAP-25) (P60880 whole entry, one chain of several): as above

Binder | % inhibition formation SNARE complex [1] | % inhibition formation SNARE complex [2] | % inhibition formation SNARE complex [3] | % inhibition formation SNARE complex [4]
Ac-RHFLQWM-NH2 [Ac-SEQ ID NO: 13-NH2] | 20% | – | – | –
Ac-QHLKEWM-NH2 [Ac-SEQ ID NO: 12-NH2] | 71% | 20% | – | –
Ac-QHLHNVM-NH2 [Ac-SEQ ID NO: 3-NH2] | 64% | 31% | – | –
Ac-QDFLHWM-NH2 [Ac-SEQ ID NO: 2-NH2] | 64% | 26% | 37% | 80%
Ac-EHLKQWM-NH2 [Ac-SEQ ID NO: 1-NH2] | 63% | 33% | 59% | 100%
Ac-EDLKRWM-NH2 [Ac-SEQ ID NO: 14-NH2] | 67% | 43% | 83% | 100%
Ac-EHLKKWM-NH2 [Ac-SEQ ID NO: 8-NH2] | 44% | 11% | – | –
Ac-NHFLNWM-NH2 [Ac-SEQ ID NO: 15-NH2] | 42% | 48% | 50% | 100%

Second part, the binder after the results:

% inhibition formation SNARE complex [1] | % inhibition formation SNARE complex [2] | % inhibition formation SNARE complex [3] | % inhibition formation SNARE complex [4] | Binder
65% | – | – | – | Ac-ENLKRWM-NH2 [Ac-SEQ ID NO: 117-NH2]
19% | – | – | – | Ac-NHLKHWM-NH2 [Ac-SEQ ID NO: 32-NH2]
14% | – | – | – | Ac-QHLKNWM-NH2 [Ac-SEQ ID NO: 27-NH2]
55% | 41% | 48% | 100% | Ac-DHFQQRM-NH2 [Ac-SEQ ID NO: 24-NH2]
– | 9% | – | – | Ac-DHFLDW[Met(O)]-NH2 [Ac-SEQ ID NO: 56-NH2]
72% | 18% | – | – | Ac-DHLKKWM-NH2 [Ac-SEQ ID NO: 22-NH2]
85% | 27% | 14% | 59% | Ac-DHFLNWM-NH2 [Ac-SEQ ID NO: 34-NH2]
69% | – | – | – | Ac-EELKRWM-NH2 [Ac-SEQ ID NO: 116-NH2]
60% | 10% | – | – | Ac-NDLKDWM-NH2 [Ac-SEQ ID NO: 23-NH2]
71% | 40% | 83% | 100% | Ac-DHFLDWM-NH2 [Ac-SEQ ID NO: 25-NH2]
71% | 24% | – | – | Ac-EHFLQWM-NH2 [Ac-SEQ ID NO: 30-NH2]
59% | 26% | – | – | Ac-NHLKNWM-NH2 [Ac-SEQ ID NO: 31-NH2]

Reference: patent publication US20150098989A1
